Where “and” joins values, the source holds several entries; their conditions need not be identical. Equal entries are not always repeated.
Columns and labels:
[1] = target: S40-H StrepII-tagged at its C-terminus (murine SPD scaffold carrying EsxH in the collagen-like region, CRD replaced by the murine CD40L 115-260 ectodomain) (Mus musculus | Mycobacterium tuberculosis | murine) (UniProt P27548); test: SEC; 50x-concentrated supernatant of LV::S40-H-StrepII-transduced HEK293T cells on Superose 6 HR 10/30, 50 mM phosphate buffer pH 7.5, 150 mM NaCl; calibrated with standard proteins; fractions analysed by Western blot in reducing conditions
[2] = target: S40-H StrepII-tagged at its C-terminus (murine SPD scaffold carrying EsxH in the collagen-like region, CRD replaced by the murine CD40L 115-260 ectodomain) (Mus musculus | Mycobacterium tuberculosis | murine) (UniProt P27548); test: non-reducing SDS-PAGE and Western blot

With “S40-H StrepII-tagged at its C-terminus (murine SPD scaffold carrying EsxH in the collagen-like region, CRD replaced by the murine CD40L 115-260 ectodomain) (from UniProt P27548 115-260)” the stoichiometry N [1] was 2 and 3 and 4 and the stoichiometry N [2] was 2 and 4 and 3.
